According to the Human Domainome abundance scans (Beltran et al. 2025):

B1: POU domain, class 2, transcription factor 1, residues 285 to 354; numbered along this chain, P14859 (parent)
chain: LEELEQFAKTFKQRRIKLGFTQGDVGLAMGKLYGNDFSQTTISRFEALNLSFKNMCKLKPLLEKWLNDAE

Variants of: B1
Assay: abundance fitness (aPCA) (normalised: wild type 0, dead -1); higher = more abundant; growth selection in yeast, the domain comes from the species named
Details: Homo sapiens

Abundance fitness of substitutions, site by site:
I16: W -0.269; V -0.017; Y -0.117
D24: L -0.192; G -0.091; P -0.846; R -0.151; V -0.218; K -0.124; T -0.089; M -0.11; A -0.058; W -0.238; Y -0.164; H -0.06; S -0.097; E -0.008
L18: R -0.143; P -0.955; D -0.601; E -0.326; W -0.237; M -0.067; G -0.312; C -0.1; N -0.408; V -0.192; S -0.094; H -0.277; Y -0.041; A -0.046; T -0.386; I -0.261
V25: F -0.372; G -0.711; S -0.843; A -0.049; I -0.094; L -0.349; W -0.645; P -0.687; D -0.504
G26: I -0.076; N -0.033; Q -0.014; D -0.052; K -0.095; E -0.025; A -0.027; L -0.054; C -0.043; S 0.025; H -0.098; F -0.082; P -0.276; V -0.005; T -0.038; R -0.087; W -0.051; M -0.04; Y -0.043
T21: I -0.598; W -0.753; L -0.284; E -0.191; R -0.198; D -0.191; F -0.693; G -0.113; H -0.191; K -0.065; A -0.158; N -0.029; V -0.482; Q -0.131; P -0.423
L32: A -0.006; D -0.078; K 0.031; G -0.107; N -0.054; Q -0.012; H -0.004; R -0.031; S -0.154; T 0.005; F -0.193; E -0.005; V -0.226
G34: I -0.189; S -0.1; P 0; T -0.16; V -0.164; A -0.027; E -0.01; N -0.041; F -0.276; C -0.023; R -0.027; Y -0.165; W -0.301; K -0.039; L -0.151; H -0.097; D -0.036
M29: S -0.49; Q -0.497; K -0.748; A -0.145; E -0.808; P -0.903; F -0.148; H -0.689; D -0.727; V 0.031; C -0.092; L -0.016; Y -0.512; W -0.625; G -0.377; I -0.006; R -0.998
S38: D 0.048; A -0.038
A28: L -0.04; F -0.11; T -0.01; P -0.56; K -0.008; Q 0.048; V -0.052; N -0.061; I -0.054; M -0.043; H -0.059; E -0.508; D -0.079; S -0.042
K31: S -0.068; Y -0.069; W -0.323; V -0.126; R 0.018; N -0.217; M -0.256; G -0.066; L -0.166; F -0.126; H 0.003; D -0.029; A -0.027; E 0.058; C -0.12; P -0.115; Q -0.034; I -0.495
G23: M -0.023; L -0.009; D 0.023; H 0.013; Y -0.028; E 0.017; A 0.025; S -0.021; N 0.013; K 0.065
